B1: XPA23 light chain A51D (Fab, V domains shown)
VH: EVQLLESGGGLVQPGGSLRLSCAASGFTFSKYFMFWVRQAPGKGLEWVSVISPSGGMTRYADSVKGRFTISRDNSKNTLYLQMNSLRAEDTAVYYCARVGYGGNSDYWGQGTLVTVSS
VL: DIQMTQSPSSVSASVGDRLTIICRASQDINRWLAWYQQTPGNAPKLLIHSDTSLQSGVPSRFSGSGSGTDFTLTINSLQPEDFATYYCQQADSFPLTFGGGTKVEIK
B2: XPA23 light chain A51E (Fab, V domains shown)
VH: EVQLLESGGGLVQPGGSLRLSCAASGFTFSKYFMFWVRQAPGKGLEWVSVISPSGGMTRYADSVKGRFTISRDNSKNTLYLQMNSLRAEDTAVYYCARVGYGGNSDYWGQGTLVTVSS
VL: DIQMTQSPSSVSASVGDRLTIICRASQDINRWLAWYQQTPGNAPKLLIHSETSLQSGVPSRFSGSGSGTDFTLTINSLQPEDFATYYCQQADSFPLTFGGGTKVEIK
B3: XPA23 light chain A51F (Fab, V domains shown)
VH: EVQLLESGGGLVQPGGSLRLSCAASGFTFSKYFMFWVRQAPGKGLEWVSVISPSGGMTRYADSVKGRFTISRDNSKNTLYLQMNSLRAEDTAVYYCARVGYGGNSDYWGQGTLVTVSS
VL: DIQMTQSPSSVSASVGDRLTIICRASQDINRWLAWYQQTPGNAPKLLIHSFTSLQSGVPSRFSGSGSGTDFTLTINSLQPEDFATYYCQQADSFPLTFGGGTKVEIK
B4: XPA23 light chain A51G (Fab, V domains shown)
VH: EVQLLESGGGLVQPGGSLRLSCAASGFTFSKYFMFWVRQAPGKGLEWVSVISPSGGMTRYADSVKGRFTISRDNSKNTLYLQMNSLRAEDTAVYYCARVGYGGNSDYWGQGTLVTVSS
VL: DIQMTQSPSSVSASVGDRLTIICRASQDINRWLAWYQQTPGNAPKLLIHSGTSLQSGVPSRFSGSGSGTDFTLTINSLQPEDFATYYCQQADSFPLTFGGGTKVEIK
B5: XPA23 light chain A51H (Fab, V domains shown)
VH: EVQLLESGGGLVQPGGSLRLSCAASGFTFSKYFMFWVRQAPGKGLEWVSVISPSGGMTRYADSVKGRFTISRDNSKNTLYLQMNSLRAEDTAVYYCARVGYGGNSDYWGQGTLVTVSS
VL: DIQMTQSPSSVSASVGDRLTIICRASQDINRWLAWYQQTPGNAPKLLIHSHTSLQSGVPSRFSGSGSGTDFTLTINSLQPEDFATYYCQQADSFPLTFGGGTKVEIK
B6: XPA23 light chain A51I (Fab, V domains shown)
VH: EVQLLESGGGLVQPGGSLRLSCAASGFTFSKYFMFWVRQAPGKGLEWVSVISPSGGMTRYADSVKGRFTISRDNSKNTLYLQMNSLRAEDTAVYYCARVGYGGNSDYWGQGTLVTVSS
VL: DIQMTQSPSSVSASVGDRLTIICRASQDINRWLAWYQQTPGNAPKLLIHSITSLQSGVPSRFSGSGSGTDFTLTINSLQPEDFATYYCQQADSFPLTFGGGTKVEIK
B7: XPA23 light chain A51L (Fab, V domains shown)
VH: EVQLLESGGGLVQPGGSLRLSCAASGFTFSKYFMFWVRQAPGKGLEWVSVISPSGGMTRYADSVKGRFTISRDNSKNTLYLQMNSLRAEDTAVYYCARVGYGGNSDYWGQGTLVTVSS
VL: DIQMTQSPSSVSASVGDRLTIICRASQDINRWLAWYQQTPGNAPKLLIHSLTSLQSGVPSRFSGSGSGTDFTLTINSLQPEDFATYYCQQADSFPLTFGGGTKVEIK
B8: XPA23 light chain A51N (Fab, V domains shown)
VH: EVQLLESGGGLVQPGGSLRLSCAASGFTFSKYFMFWVRQAPGKGLEWVSVISPSGGMTRYADSVKGRFTISRDNSKNTLYLQMNSLRAEDTAVYYCARVGYGGNSDYWGQGTLVTVSS
VL: DIQMTQSPSSVSASVGDRLTIICRASQDINRWLAWYQQTPGNAPKLLIHSNTSLQSGVPSRFSGSGSGTDFTLTINSLQPEDFATYYCQQADSFPLTFGGGTKVEIK
B9: XPA23 light chain A51P (Fab, V domains shown)
VH: EVQLLESGGGLVQPGGSLRLSCAASGFTFSKYFMFWVRQAPGKGLEWVSVISPSGGMTRYADSVKGRFTISRDNSKNTLYLQMNSLRAEDTAVYYCARVGYGGNSDYWGQGTLVTVSS
VL: DIQMTQSPSSVSASVGDRLTIICRASQDINRWLAWYQQTPGNAPKLLIHSPTSLQSGVPSRFSGSGSGTDFTLTINSLQPEDFATYYCQQADSFPLTFGGGTKVEIK
B10: XPA23 light chain A51Q (Fab, V domains shown)
VH: EVQLLESGGGLVQPGGSLRLSCAASGFTFSKYFMFWVRQAPGKGLEWVSVISPSGGMTRYADSVKGRFTISRDNSKNTLYLQMNSLRAEDTAVYYCARVGYGGNSDYWGQGTLVTVSS
VL: DIQMTQSPSSVSASVGDRLTIICRASQDINRWLAWYQQTPGNAPKLLIHSQTSLQSGVPSRFSGSGSGTDFTLTINSLQPEDFATYYCQQADSFPLTFGGGTKVEIK
B11: XPA23 light chain A51R (Fab, V domains shown)
VH: EVQLLESGGGLVQPGGSLRLSCAASGFTFSKYFMFWVRQAPGKGLEWVSVISPSGGMTRYADSVKGRFTISRDNSKNTLYLQMNSLRAEDTAVYYCARVGYGGNSDYWGQGTLVTVSS
VL: DIQMTQSPSSVSASVGDRLTIICRASQDINRWLAWYQQTPGNAPKLLIHSRTSLQSGVPSRFSGSGSGTDFTLTINSLQPEDFATYYCQQADSFPLTFGGGTKVEIK
B12: XPA23 light chain A51S (Fab, V domains shown)
VH: EVQLLESGGGLVQPGGSLRLSCAASGFTFSKYFMFWVRQAPGKGLEWVSVISPSGGMTRYADSVKGRFTISRDNSKNTLYLQMNSLRAEDTAVYYCARVGYGGNSDYWGQGTLVTVSS
VL: DIQMTQSPSSVSASVGDRLTIICRASQDINRWLAWYQQTPGNAPKLLIHSSTSLQSGVPSRFSGSGSGTDFTLTINSLQPEDFATYYCQQADSFPLTFGGGTKVEIK
B13: XPA23 light chain A51T (Fab, V domains shown)
VH: EVQLLESGGGLVQPGGSLRLSCAASGFTFSKYFMFWVRQAPGKGLEWVSVISPSGGMTRYADSVKGRFTISRDNSKNTLYLQMNSLRAEDTAVYYCARVGYGGNSDYWGQGTLVTVSS
VL: DIQMTQSPSSVSASVGDRLTIICRASQDINRWLAWYQQTPGNAPKLLIHSTTSLQSGVPSRFSGSGSGTDFTLTINSLQPEDFATYYCQQADSFPLTFGGGTKVEIK
B14: XPA23 light chain A51V (Fab, V domains shown)
VH: EVQLLESGGGLVQPGGSLRLSCAASGFTFSKYFMFWVRQAPGKGLEWVSVISPSGGMTRYADSVKGRFTISRDNSKNTLYLQMNSLRAEDTAVYYCARVGYGGNSDYWGQGTLVTVSS
VL: DIQMTQSPSSVSASVGDRLTIICRASQDINRWLAWYQQTPGNAPKLLIHSVTSLQSGVPSRFSGSGSGTDFTLTINSLQPEDFATYYCQQADSFPLTFGGGTKVEIK
B15: XPA23 light chain A51W (Fab, V domains shown)
VH: EVQLLESGGGLVQPGGSLRLSCAASGFTFSKYFMFWVRQAPGKGLEWVSVISPSGGMTRYADSVKGRFTISRDNSKNTLYLQMNSLRAEDTAVYYCARVGYGGNSDYWGQGTLVTVSS
VL: DIQMTQSPSSVSASVGDRLTIICRASQDINRWLAWYQQTPGNAPKLLIHSWTSLQSGVPSRFSGSGSGTDFTLTINSLQPEDFATYYCQQADSFPLTFGGGTKVEIK
B16: XPA23 light chain A51Y (Fab, V domains shown)
VH: EVQLLESGGGLVQPGGSLRLSCAASGFTFSKYFMFWVRQAPGKGLEWVSVISPSGGMTRYADSVKGRFTISRDNSKNTLYLQMNSLRAEDTAVYYCARVGYGGNSDYWGQGTLVTVSS
VL: DIQMTQSPSSVSASVGDRLTIICRASQDINRWLAWYQQTPGNAPKLLIHSYTSLQSGVPSRFSGSGSGTDFTLTINSLQPEDFATYYCQQADSFPLTFGGGTKVEIK
B17: XPA23 light chain A91D (Fab, V domains shown)
VH: EVQLLESGGGLVQPGGSLRLSCAASGFTFSKYFMFWVRQAPGKGLEWVSVISPSGGMTRYADSVKGRFTISRDNSKNTLYLQMNSLRAEDTAVYYCARVGYGGNSDYWGQGTLVTVSS
VL: DIQMTQSPSSVSASVGDRLTIICRASQDINRWLAWYQQTPGNAPKLLIHSATSLQSGVPSRFSGSGSGTDFTLTINSLQPEDFATYYCQQDDSFPLTFGGGTKVEIK
B18: XPA23 light chain A91E (Fab, V domains shown)
VH: EVQLLESGGGLVQPGGSLRLSCAASGFTFSKYFMFWVRQAPGKGLEWVSVISPSGGMTRYADSVKGRFTISRDNSKNTLYLQMNSLRAEDTAVYYCARVGYGGNSDYWGQGTLVTVSS
VL: DIQMTQSPSSVSASVGDRLTIICRASQDINRWLAWYQQTPGNAPKLLIHSATSLQSGVPSRFSGSGSGTDFTLTINSLQPEDFATYYCQQEDSFPLTFGGGTKVEIK
B19: XPA23 Fab, heavy chain Y107R (Fab, V domains shown)
VH: EVQLLESGGGLVQPGGSLRLSCAASGFTFSKYFMFWVRQAPGKGLEWVSVISPSGGMTRYADSVKGRFTISRDNSKNTLYLQMNSLRAEDTAVYYCARVGYGGNSDRWGQGTLVTVSS
VL: DIQMTQSPSSVSASVGDRLTIICRASQDINRWLAWYQQTPGNAPKLLIHSATSLQSGVPSRFSGSGSGTDFTLTINSLQPEDFATYYCQQADSFPLTFGGGTKVEIK
B20: XPA23 Fab, heavy chain Y107S (Fab, V domains shown)
VH: EVQLLESGGGLVQPGGSLRLSCAASGFTFSKYFMFWVRQAPGKGLEWVSVISPSGGMTRYADSVKGRFTISRDNSKNTLYLQMNSLRAEDTAVYYCARVGYGGNSDSWGQGTLVTVSS
VL: DIQMTQSPSSVSASVGDRLTIICRASQDINRWLAWYQQTPGNAPKLLIHSATSLQSGVPSRFSGSGSGTDFTLTINSLQPEDFATYYCQQADSFPLTFGGGTKVEIK
B21: XPA23 Fab, heavy chain Y107W (Fab, V domains shown)
VH: EVQLLESGGGLVQPGGSLRLSCAASGFTFSKYFMFWVRQAPGKGLEWVSVISPSGGMTRYADSVKGRFTISRDNSKNTLYLQMNSLRAEDTAVYYCARVGYGGNSDWWGQGTLVTVSS
VL: DIQMTQSPSSVSASVGDRLTIICRASQDINRWLAWYQQTPGNAPKLLIHSATSLQSGVPSRFSGSGSGTDFTLTINSLQPEDFATYYCQQADSFPLTFGGGTKVEIK

Tests used:
IL-1β = target: T1, IL-1β (UniProt P01584 117-269); experiment: Biacore, periplasmic extract
T1 construct: Antigen immobilised on the Biacore chip

IL-1beta = target: T2, IL-1beta (UniProt P01584 117-269); experiment: Biacore
T2 construct: also called IL-1β

Binder | fold difference in affinity vs original (IL-1β) [fold] | other results
B1 | 0.13 | –
B2 | 0.29 | –
B3 | – | binding result (IL-1β): no binding
B4 | 3.84 | –
B5 | 0.61 | –
B6 | – | binding result (IL-1β): no binding
B7 | 0.16 | –
B8 | 0.3 | –
B9 | 0.13 | –
B10 | 0.24 | –
B11 | 0.18 | –
B12 | 0.95 | –
B13 | 0.76 | –
B14 | 0.31 | –
B15 | 0.24 | –
B16 | 0.45 | –
B17 | 1.08 | –
B18 | 0.1 | –
B19 | – | fold difference in affinity vs parental (IL-1beta): 0.85 fold
B20 | – | fold difference in affinity vs parental (IL-1beta): 0.89 fold
B21 | – | fold difference in affinity vs parental (IL-1beta): 0.89 fold

Source: patent publication US20110118131A1 (published 2011)
